Data reported in IntAct's records for PubMed 20067578.

B1: Dual specificity mitogen-activated protein kinase kinase 6 (Homo sapiens), P52564 (parent)
chain: MSQSKGKKRNPGLKIPKEAFEQPQTSSTPPRDLDSKACISIGNQNFEVKADDLEPIMELGRGAYGVVEKMRHVPSGQIMAVKRIRATVNSQEQKRLLMDLDISMRTVDCPFTVTFYGALFREGDVWICMELMDTSLDKFYKQVIDKGQTIPEDILGKIAVSIVKALEHLHSKLSVIHRDVKPSNVLINALGQVKMCDFGISGYLVDSVAKTIDAGCKPYMAPERINPELNQKGYSVKSDIWSLGITMIELAILRFPYDSWGTPFQQLKQVVEEPSPQLPADKFSAEFVDFTSQCLKKNSKERPTYPELMQHPFFTLHESKGTDVASFVKLILGD

Variants of: B1
Settings: with lrrk2_human LRRK2, Q5S007
Sequence of lrrk2_human LRRK2, Q5S007 (Q5S007 whole entry): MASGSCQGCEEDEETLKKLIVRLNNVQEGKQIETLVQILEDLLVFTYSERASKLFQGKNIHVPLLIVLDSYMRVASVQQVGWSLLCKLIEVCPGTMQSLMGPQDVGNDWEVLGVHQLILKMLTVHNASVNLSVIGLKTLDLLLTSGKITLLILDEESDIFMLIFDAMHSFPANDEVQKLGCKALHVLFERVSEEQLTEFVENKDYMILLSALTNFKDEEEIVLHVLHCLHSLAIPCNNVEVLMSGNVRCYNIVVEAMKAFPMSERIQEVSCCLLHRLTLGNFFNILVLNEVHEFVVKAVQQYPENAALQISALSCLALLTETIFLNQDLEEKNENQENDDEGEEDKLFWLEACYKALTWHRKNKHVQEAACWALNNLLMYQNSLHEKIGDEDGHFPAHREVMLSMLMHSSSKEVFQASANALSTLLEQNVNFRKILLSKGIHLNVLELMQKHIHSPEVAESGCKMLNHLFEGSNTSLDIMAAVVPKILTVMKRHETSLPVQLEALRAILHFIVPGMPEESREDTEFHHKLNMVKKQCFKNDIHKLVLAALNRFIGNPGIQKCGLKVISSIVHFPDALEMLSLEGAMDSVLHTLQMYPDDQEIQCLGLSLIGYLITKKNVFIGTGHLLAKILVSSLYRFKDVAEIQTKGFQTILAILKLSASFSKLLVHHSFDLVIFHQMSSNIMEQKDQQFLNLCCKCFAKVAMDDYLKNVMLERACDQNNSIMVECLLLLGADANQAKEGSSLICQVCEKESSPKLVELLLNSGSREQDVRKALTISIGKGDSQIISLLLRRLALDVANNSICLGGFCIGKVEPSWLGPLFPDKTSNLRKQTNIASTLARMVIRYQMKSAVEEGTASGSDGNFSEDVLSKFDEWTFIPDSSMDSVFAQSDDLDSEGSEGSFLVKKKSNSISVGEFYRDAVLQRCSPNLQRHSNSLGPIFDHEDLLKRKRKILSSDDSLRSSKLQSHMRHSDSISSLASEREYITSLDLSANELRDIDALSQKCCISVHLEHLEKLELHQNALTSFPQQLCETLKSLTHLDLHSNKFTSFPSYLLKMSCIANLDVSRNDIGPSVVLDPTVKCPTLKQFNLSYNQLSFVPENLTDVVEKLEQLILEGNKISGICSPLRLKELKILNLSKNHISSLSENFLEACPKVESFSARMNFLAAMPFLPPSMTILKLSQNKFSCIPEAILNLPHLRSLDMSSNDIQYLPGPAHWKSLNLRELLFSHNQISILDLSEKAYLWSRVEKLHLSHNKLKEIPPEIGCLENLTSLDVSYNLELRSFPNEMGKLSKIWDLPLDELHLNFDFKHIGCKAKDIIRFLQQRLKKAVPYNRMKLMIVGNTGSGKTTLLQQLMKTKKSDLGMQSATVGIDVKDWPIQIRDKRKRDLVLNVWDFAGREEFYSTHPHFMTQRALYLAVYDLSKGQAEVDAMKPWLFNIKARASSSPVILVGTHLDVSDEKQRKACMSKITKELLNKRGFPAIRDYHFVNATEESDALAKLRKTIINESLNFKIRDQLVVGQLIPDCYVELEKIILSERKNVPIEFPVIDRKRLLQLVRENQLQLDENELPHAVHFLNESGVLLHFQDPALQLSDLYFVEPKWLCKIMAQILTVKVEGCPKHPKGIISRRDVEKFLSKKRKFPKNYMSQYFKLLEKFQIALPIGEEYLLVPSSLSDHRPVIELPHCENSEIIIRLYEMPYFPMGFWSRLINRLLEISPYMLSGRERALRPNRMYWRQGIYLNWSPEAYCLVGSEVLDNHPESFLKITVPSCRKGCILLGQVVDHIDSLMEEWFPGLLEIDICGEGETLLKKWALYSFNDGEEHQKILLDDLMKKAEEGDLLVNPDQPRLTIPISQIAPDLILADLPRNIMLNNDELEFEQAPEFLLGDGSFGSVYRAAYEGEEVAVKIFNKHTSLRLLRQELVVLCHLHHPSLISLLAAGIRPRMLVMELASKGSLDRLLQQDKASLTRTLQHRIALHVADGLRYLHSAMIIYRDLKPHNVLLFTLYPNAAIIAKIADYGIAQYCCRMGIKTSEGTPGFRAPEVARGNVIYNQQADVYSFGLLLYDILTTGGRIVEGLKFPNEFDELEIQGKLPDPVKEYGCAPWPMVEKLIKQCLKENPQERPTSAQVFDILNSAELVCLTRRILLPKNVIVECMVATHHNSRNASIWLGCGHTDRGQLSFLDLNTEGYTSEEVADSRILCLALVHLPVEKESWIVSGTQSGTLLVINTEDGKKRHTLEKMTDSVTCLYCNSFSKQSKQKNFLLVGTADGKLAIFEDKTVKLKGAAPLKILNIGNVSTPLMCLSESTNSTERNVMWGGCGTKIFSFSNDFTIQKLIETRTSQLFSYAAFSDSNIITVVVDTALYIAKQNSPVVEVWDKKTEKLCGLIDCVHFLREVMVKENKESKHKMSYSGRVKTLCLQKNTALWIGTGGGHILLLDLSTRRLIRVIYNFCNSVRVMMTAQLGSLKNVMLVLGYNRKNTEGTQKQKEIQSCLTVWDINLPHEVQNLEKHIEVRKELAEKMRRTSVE

Variant	effect of a mutation on the interaction
K82A	decreasing interaction
